Source: publication PMC2967539

Biological target: human dipeptidyl peptidase IV (human) (UniProt P27487)
UniProt P27487, sequence (P27487 whole entry): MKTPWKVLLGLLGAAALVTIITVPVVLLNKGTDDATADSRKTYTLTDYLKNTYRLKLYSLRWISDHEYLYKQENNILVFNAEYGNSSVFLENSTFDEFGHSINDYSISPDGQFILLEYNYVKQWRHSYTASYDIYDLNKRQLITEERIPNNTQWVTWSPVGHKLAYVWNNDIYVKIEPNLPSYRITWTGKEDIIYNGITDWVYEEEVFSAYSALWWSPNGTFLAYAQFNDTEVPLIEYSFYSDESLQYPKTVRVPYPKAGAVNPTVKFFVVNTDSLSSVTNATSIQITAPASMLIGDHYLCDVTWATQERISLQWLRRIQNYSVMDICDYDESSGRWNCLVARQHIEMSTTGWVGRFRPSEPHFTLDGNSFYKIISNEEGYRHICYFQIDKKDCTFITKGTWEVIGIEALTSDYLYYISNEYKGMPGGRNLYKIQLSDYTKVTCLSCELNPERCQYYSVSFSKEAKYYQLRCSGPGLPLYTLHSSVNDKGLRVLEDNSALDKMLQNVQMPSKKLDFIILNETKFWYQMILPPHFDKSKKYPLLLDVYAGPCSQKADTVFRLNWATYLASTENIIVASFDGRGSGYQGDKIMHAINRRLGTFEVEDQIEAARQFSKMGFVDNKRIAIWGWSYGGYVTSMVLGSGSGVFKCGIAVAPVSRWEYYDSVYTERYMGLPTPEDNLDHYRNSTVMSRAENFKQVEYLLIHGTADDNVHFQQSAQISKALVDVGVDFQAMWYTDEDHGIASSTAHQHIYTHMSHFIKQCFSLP

## Tat-1-86 protein (Immuno-Diagnostics) (from UniProt P04610 1-86) (natural protein)
  cleavage of GLP1 (31.25 uM) by purified DPPIV (16 nM) in the presence of 1 uM Tat-1-86, MALDI-TOF mass spectrometry, after 5 min at 37 °C (all GLP1 cleaved within 5 min without Tat): 40%
